From PMC11339409

Columns and labels:
[1] = target: LUJV glycoprotein-1 (GP1) (Lujo virus (LUJV)); experiment: cryo-EM structure
[2] = target: LUJV glycoprotein-2 (GP2) (Lujo virus (LUJV)); experiment: cryo-EM structure

| Substance | stoichiometry N [1] | stoichiometry N [2] |
| --- | --- | --- |
| LUJV glycoprotein-1 (GP1) (domain or fragment) | 3 | – |
| LUJV glycoprotein-2 (GP2) (domain or fragment) | – | 3 |
